Entries after “also recorded” stand apart in the source; their conditions may differ.

Experimental findings from US8597660B2, “Therapeutic approach to neurodegenerative disorders using a TFP5-peptide” (The United States of America, as represented by the …, priority 2010, dated 2013) are described below.

One experiment relates to cortical neurons. The experiment in a line: TUNEL assay of Aβ-induced apoptosis in cortical neurons. Format: cell-based, rat. The settings on record: neurons transfected with GFP-P5, Aβ 6 h. As to the method: Primary cortical neuron cells were cultured for 5 days on glass coverslips coated with poly-L-lysine, and transfected with or without P5 using Lipofectamine 2000. After 24 hours, TUNEL staining was done according to the manufacturer's instructions. Cells were washed three times in PBS, fixed for 1 hour at room temperature in fresh 4% paraformaldehyde in PBS, and permeabilized (0.1% Triton X-100 in 0.1 sodium citrate) for 2 minutes on ice. After washing 2× with PBS, TUNEL reaction mixture (50 μl) was added and incubated in a humidified atmosphere at 37° C. for 1 hour. TUNEL staining and fluorescent images were visualized with a Zeiss LSM-510 laser-scanning confocal microscope. Images were processed and merged by Adobe Photoshop software.
To determine whether P5 inhibited neuronal apoptosis induced by Aβ, primary cortical neurons (5 days in culture (DIC)) were transfected with P5-GFP using Lipofectamine 2000. After 24 hours, cells were exposed to Aβ for 6 hours. The neurons were fixed and subjected to TUNEL staining, while P5 was visualized by (green fluorescent protein) GFP. […] The data are quantified in FIG. 5B. More than 85% of nontransfected neurons were apoptosis positive. […] Cortical neurons infected with or without P5 and treated with Aβ for 6 hours were assayed for cleaved caspase 3 by Western blot analysis (FIG. 5C). […]. […] The data are quantified in FIG. 5D.

Experiment [1] has as its system Cdk5/P35. Briefly: Kinase assay of Cdk5 immunoprecipitates from cortical neurons, infected or endogenous Cdk5/P35. The experiment is classed as cell-based, rat. The settings on record: E-18 rat cortical neurons co-infected with P5. As to the method:
(§1) Briefly, 7 days in culture (7 DIC) primary rat cortical neurons were infected with P25, P35, Cdk5 wild-type, dominant negative-Cdk5 and P5 using the lentiviral gene delivery as described earlier. Cdk5 was immunoprecipitated using the polyclonal C8 antibody overnight at 4° C. and immunoglobulin isolated using Protein A sepharose beads for 2 hours at 4° C. Immunoprecipitates were washed three times with lysis buffer and then once with 1× kinase buffer containing 20 mM Tris-Cl pH 7.4, 1 mM EDTA, 1 mM EGTA, 10 mM MgCl2, 10 mM sodium fluoride and 1 mM sodium orthovanadate. Endogenous Cdks were immunoprecipitated from HEK 293 cells using their respective antibodies and treated as above. […] ATP with 20 μg of histone H1 as the substrate. Phosphorylation was performed in a final volume of […] incubated at 30° C. for 60 minutes, stopped by the addition of 10% SDS sample buffer and heating at 95° C. for 5 minutes. Samples were separated by SDS-PAGE, gels were stained with Coomassie, destained, dried and exposed to autoradiography. In pad assays, 25 μl aliquots of the incubation mixture were placed on a Whatman p80 paper square, washed and dried and placed in a scintillation vial for counting.

The target in experiment [2] is T1, Cdk5/P35 (Rattus norvegicus, UniProt Q03114).
T1 construct: endogenous in cells; host or cells: E-18 rat cortical neurons
T1 sequence (Q03114 whole entry): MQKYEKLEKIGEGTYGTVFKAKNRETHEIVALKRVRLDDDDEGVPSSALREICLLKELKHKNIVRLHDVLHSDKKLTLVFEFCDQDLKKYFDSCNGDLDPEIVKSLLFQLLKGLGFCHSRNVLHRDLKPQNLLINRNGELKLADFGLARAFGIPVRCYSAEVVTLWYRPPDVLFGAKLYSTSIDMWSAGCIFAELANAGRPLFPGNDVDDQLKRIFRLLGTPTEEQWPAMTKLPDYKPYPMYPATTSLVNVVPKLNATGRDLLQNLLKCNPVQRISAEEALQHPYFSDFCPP
T1 sequence (P61810 2-307 partner): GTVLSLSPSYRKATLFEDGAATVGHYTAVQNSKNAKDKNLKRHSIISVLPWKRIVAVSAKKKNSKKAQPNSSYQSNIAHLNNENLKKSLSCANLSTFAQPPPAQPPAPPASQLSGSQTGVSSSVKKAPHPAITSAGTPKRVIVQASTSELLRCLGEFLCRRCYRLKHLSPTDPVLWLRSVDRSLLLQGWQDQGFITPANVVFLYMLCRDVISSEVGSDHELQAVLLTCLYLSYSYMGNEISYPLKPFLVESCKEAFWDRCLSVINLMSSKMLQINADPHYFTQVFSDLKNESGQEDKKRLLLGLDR
Described as above. Format: cell-based. To be noted: cortical neurons infected only with P5, or uninfected treated with 20 μM roscovitine. Here is the method:
as §1

The target in experiment [3] is Cdk5/P35 (Homo sapiens, UniProt Q00535). Briefly: Cdk5/P35 kinase assay after pre-incubation with β-tubulin. The experiment is classed as biochemical. Here is the method:
Tubulin polymerization was performed as detailed in a previous report (Hou et al., J. Biol. Chem., 282(26), 18666-18670, 2007). Briefly, active kinase Cdk5/P35 (2 ng/μL) or active Cdk5/P25 (1 ng/μL) were incubated with β-tubulin (enzyme: tubulin at 1:100) in the PEM buffer (80 mM PIPES, 2 mM MgCl2, 1 mM EGTA PH 7.0) supplemented with 1 mM GTP at 35° C. for 45 minutes. Following the incubation, Cdk5 kinase assays were performed with or without the addition of 0.45 μM or 0.90 μM P5.
To further explore this possibility, β-tubulin (which is enriched in neurons) was used to perform a study in vitro to mimic P35 interactions in cells. Cdk5/P35 and Cdk5/P25 active kinases were pre-incubated with β-tubulin (Cdk5 kinase:tubulin=1:100) respectively at 35° C. for 45 minutes to 1 hour under conditions that would promote tubulin polymerization, followed by a Cdk5 kinase assay with/without the addition of P5. […] Cdk5/P25 activity, however, was inhibited 60% after pre-incubation at the lower P5 concentration (0.45 μM) (FIG. 9B, lane 4 compared with lane 1) (p<0.01). […] On the other hand, P25, lacking the P10 domain, fails to bind these proteins, and P5 readily binds with Cdk5 in the Cdk5/P25 complex to inhibit activity.

Experiment [4] relates to Cdc2, Cdk2, Cdk4, and Cdk6. The experiment in a line: Kinase pad assay on Cdk immunoprecipitates of untreated HEK293 lysates with added P5 peptide. The experiment is classed as biochemical, human. To be noted: P5 peptide up to 1.8 μM; roscovitine 20 μM. Here is the method:
as §1

Another experiment deals with T2, Cdk5/P25 (Rattus norvegicus, UniProt Q03114).
T2 construct: endogenous in cells; host or cells: E-18 rat cortical neurons treated with 10 uM Abeta1-42
T2 sequence (Q03114 whole entry): as the sequence (Q03114 whole entry) above
Briefly: In vitro kinase assay on Cdk5 immunoprecipitates of Aβ1-42-treated cortical neurons with added P5 peptide. The experiment is classed as biochemical. To be noted: P5 0.45 μM or above. Here is the method: Kinase assays were performed as previously described (Veeranna, et al., J Neurosci 18(11), 4008-4021, 1998). Briefly, 7 days in culture (7 DIC) primary rat cortical neurons were infected with P25, P35, Cdk5 wild-type, dominant negative-Cdk5 and P5 using the lentiviral gene delivery as described earlier. Cdk5 was immunoprecipitated using the polyclonal C8 antibody overnight at 4° C. and immunoglobulin isolated using Protein A sepharose beads for 2 hours at 4° C. Immunoprecipitates were washed three times with lysis buffer and then once with 1× kinase buffer containing 20 mM Tris-Cl pH 7.4, 1 mM EDTA, 1 mM EGTA, 10 mM MgCl2, 10 mM sodium fluoride and 1 mM sodium orthovanadate. Endogenous Cdks were immunoprecipitated from HEK 293 cells using their respective antibodies and treated as above. Kinase assays were performed in the same buffer containing 1 mM DTT, 0.1 mM ATP and 0.185 MBq [γ-32P] ATP with 20 μg of histone H1 as the substrate. […]
To determine the minimum dose at which the P5 peptide is an efficient inhibitor of Cdk5/P25 hyperactivity under physiological conditions, cortical neurons were treated with Aβ1-42 to induce the expression of P25 and Cdk5 hyperactivation, Cdk5 immunoprecipitates were prepared and the effect of different concentrations of P5 was evaluated (FIG. 6).

Sequence of Cdk5/P35 (Homo sapiens, UniProt Q00535) (Q00535 whole entry, species assumed): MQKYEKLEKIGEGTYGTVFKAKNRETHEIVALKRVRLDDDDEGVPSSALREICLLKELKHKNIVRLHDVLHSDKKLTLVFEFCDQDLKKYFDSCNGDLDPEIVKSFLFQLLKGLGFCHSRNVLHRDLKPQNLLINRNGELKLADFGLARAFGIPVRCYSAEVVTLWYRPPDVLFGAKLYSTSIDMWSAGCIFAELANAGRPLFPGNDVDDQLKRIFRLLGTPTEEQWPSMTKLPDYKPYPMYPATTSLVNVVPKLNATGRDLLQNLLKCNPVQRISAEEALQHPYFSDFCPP

As to “P5: 24 residue peptide derived from Cdk5 activator P35 (K254-A277 of SEQ ID NO: 16); Cdk5 inhibitory peptide (KEAFWDRCLSVINLMSSKMLQINA; listed as Homo sapiens)”, the “Aβ-induced apoptosis (TUNEL)” value with cortical neurons was “virtually all P5 transfected cells were protected from Aβ-induced apoptosis; also recorded: clearly inhibited Aβ-mediated neuronal apoptosis”. In addition, in the experiment with Cdk5/P35 [1], the “Inhibition of Cdk5 activity in neurons co-infected with Cdk5/P35” value is 10-20%. In addition, the “Effect on endogenous Cdk5/P35 activity” value with Cdk5/P35 [2] is reported as “no reduction in activity”. In addition, in the experiment with Cdk5/P35 [3] (0.45 μM P5), the “Inhibition of Cdk5/P35 activity pre-incubated with polymerized tubulin” value is recorded as “no effect on pre-incubated Cdk5/P35 activity; also recorded: not inhibited; also recorded: had no effect on Cdk5/P35”; the “Inhibition of Cdk5/P35 activity with unpolymerized tubulin (no pre-incubation)” value is “P5 inhibits both kinases equally; also recorded: inhibited both Cdk5/P35 and Cdk5/P25 activities equally; also recorded: inhibited both complexes equally”. In addition, in the experiment with Cdk5/P35 [3] (0.9 μM P5), the “Inhibition of Cdk5/P35 activity pre-incubated with polymerized tubulin” value is reported as “both kinase complexes are inhibited equally; also recorded: both Cdk5 complexes were inhibited”. Moreover, the “Inhibition of cell cycle Cdk activities in vitro” value in experiment [4] is “virtually no inhibition; also recorded: minimal inhibition of Cdc2 and Cdk4 activities”. The “Aβ1-42-induced Cdk5 hyperactivity” value with Cdk5/P25 is given as “totally eliminated”.
